Assay results as given in patent US20130225503A1, “TEX14 PEPTIDES AS NOVEL ANTITUMOR AGENTS” (Baylor Licnensing Group, priority 2009, published 2013).

B3: full-length mouse CEP55 (other, UniProt Q8BT07 1-462, looked up)
chain: MSSRSPKDLIKSKWGSRPSSSKSDTALEKFKGEIAAFKTSLDEITSGKGKMAEKGRSRLLEKIQVLEAEREKNVYYLLEKDKEIQRLKDHLRSRYSSSSLFEQLEEKTKECEKKQQLLESLSKETDVLKNQLSATTKRLSELESKASTLHLSQSMPANCFNSSMNSIHEKEMQLKDALEKNQQWLVYDQQREAYVKGLLAKIFELEKRTETAAASLTQQMKKIESEGYLQVEKQKYDHLLENAKKDLEVERQAVTQLRLELDEFRRKYEEARKEVEDLNQLLSSQRKADIQHLEEDKQKTERIQKLREESSIFKGKLEEERKRSEELLSQVRILYDSLLKHQEEQARVALLEQQMQACTLDFENEKLDRQNMQHQLYVILKELRKAKSQITQLESLKQLHGFTITEQPFPLQREPESRVKATSPKSPSAALNDSLVECPKCSVQYPATEHRDLLVHVEYCMK
notes: whole, on cells; Yeast two-hybrid fusion with a GAL4 domain (pGBKT7 or pGADT7)

Experiments:
TX-CEP interaction = target: T1, TX-CEP interaction (Homo sapiens, UniProt Q53EZ4); assay: Competition assay using the mammalian two-hybrid system, TX-CEP55 interaction; assay type: cell-based; settings: pcDNA3 overexpression in HEK293T cells; FIG. 6C, FIG. 7 right
T1 construct: expressed in transfected cells; host or cells: HEK293T
T1 sequence (Q53EZ4 157-236 limits assumed): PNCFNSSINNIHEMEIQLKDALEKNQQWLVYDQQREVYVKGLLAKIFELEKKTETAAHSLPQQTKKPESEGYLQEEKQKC
Excerpt: A modified form of the CheckMate/Flexi vector mammalian two-hybrid system (Promega) was used to study the interactions of proteins in mammalian cells. A pGL4Cherry (mCherry/GAL4UAS/Hygro) vector was engineered from the pGL4.31 (luc2P/GAL4UAS/Hygro) vector by replacing the Luc2P firefly luciferase reporter sequence with the mCherry sequence. The pACT vector expresses a protein of interest, “X,” fused to a transcriptional activation domain (VP16-AD) and the pBIND vector expresses the other protein of interest, “Y,” fused to a DNA-binding domain (GAL4-BD) and Renilla luciferase by separate promoters. […]
Sequences encoding the truncated TEX14, CEP55, ALIX, or TSG101 fragments were cloned into the multiple cloning regions of the pACT and pBIND vectors. Some exemplary constructs used are summarized in FIGS. 6A and B. pACT (protein X), pBIND (protein Y), and pGL4Cherry (mCherry/GAL4UAS/Hygro) were transiently cotransfected into HEK293T cells using Fugene 6/HD transfection reagent, and the cells were examined 44 h later for red fluorescence by using an Axiovert 40 CFL microscope (Carl Zeiss). […] The cells were lysed by using Renilla luciferase assay reagent (Promega), and red fluorescence and Renilla luciferase were measured by using a Polar Star Omega microplate reader (BMG LabTech). […]

full-length mouse TEX14 = target: T2, full-length mouse TEX14 (mouse, UniProt Q7M6U3 1-1450); assay: yeast two-hybrid, full-length proteins, oxygen biosensor and selection plates
T2 construct: whole, on cells; In the yeast two-hybrid assay it stood as a fusion with a GAL4 domain (pGBKT7 bait or pGADT7 prey vector)
T2 sequence (looked up): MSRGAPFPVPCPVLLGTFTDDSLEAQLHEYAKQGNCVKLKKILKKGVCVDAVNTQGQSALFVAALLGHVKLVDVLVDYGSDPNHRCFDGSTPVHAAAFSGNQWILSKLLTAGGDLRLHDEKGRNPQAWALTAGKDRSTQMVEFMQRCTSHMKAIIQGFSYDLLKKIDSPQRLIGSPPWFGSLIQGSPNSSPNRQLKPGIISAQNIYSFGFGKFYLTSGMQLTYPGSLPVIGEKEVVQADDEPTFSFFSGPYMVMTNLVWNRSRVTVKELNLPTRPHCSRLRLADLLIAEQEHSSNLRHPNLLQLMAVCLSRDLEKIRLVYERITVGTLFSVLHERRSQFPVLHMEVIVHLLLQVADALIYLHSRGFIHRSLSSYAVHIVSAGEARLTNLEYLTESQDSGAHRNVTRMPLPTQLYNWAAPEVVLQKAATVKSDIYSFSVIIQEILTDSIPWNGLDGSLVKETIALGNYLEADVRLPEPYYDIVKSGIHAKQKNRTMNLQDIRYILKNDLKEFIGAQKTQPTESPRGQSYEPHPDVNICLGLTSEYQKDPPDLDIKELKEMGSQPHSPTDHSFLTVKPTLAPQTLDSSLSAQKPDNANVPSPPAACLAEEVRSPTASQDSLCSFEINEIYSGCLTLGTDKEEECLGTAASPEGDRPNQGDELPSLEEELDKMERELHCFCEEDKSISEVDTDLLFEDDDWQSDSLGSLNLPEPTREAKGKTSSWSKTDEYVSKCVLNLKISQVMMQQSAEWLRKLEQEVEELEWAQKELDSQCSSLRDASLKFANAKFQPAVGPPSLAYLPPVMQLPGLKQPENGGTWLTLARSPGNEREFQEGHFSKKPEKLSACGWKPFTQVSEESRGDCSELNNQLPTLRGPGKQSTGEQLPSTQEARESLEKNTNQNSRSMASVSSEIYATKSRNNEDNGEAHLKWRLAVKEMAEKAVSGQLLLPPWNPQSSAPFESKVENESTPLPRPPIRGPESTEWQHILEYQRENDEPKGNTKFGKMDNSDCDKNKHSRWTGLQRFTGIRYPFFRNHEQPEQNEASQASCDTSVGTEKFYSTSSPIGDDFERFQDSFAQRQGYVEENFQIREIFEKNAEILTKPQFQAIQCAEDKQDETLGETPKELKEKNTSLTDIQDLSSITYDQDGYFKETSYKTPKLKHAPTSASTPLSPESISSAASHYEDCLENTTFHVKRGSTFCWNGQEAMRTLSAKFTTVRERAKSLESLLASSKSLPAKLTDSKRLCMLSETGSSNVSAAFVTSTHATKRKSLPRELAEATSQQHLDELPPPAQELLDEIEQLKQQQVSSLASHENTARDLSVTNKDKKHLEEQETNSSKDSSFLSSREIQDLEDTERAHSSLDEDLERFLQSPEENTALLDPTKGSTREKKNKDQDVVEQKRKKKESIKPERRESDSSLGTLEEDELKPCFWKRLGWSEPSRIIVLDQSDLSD
Experimental: (A) Immunoprecipitation (IP) of FLAG-TEX14 and/or MYC-CEP55 from HEK293T cells, followed by Western blot analysis with the antibodies as shown. Immunoprecipitation of protein G (lanes G) is the control. (B) Yeast two-hybrid analyses using vectors encoding full-length mouse TEX14, MKLP1, CEP55, and positive and negative controls. The relative ratios of TEX14-TEX14, TEX14-MKLP1, and TEX14-CEP55 interactions were determined by using an oxygen-biosensor system. (C) Yeast two-hybrid interactions of mouse and human full-length TEX14 and CEP55. (a) Yeast were stably transformed with vectors and plated for yeast two-hybrid analysis as depicted. SV40 T antigen with p53 and SV40 T antigen with lamin C were used as positive and negative controls, respectively. (b) Interactions between the two-hybrid proteins are evident by colony growth and blue color on selection plates.
(§1) Protein-protein interactions were evaluated by using the Matchmaker Two-Hybrid System 3 (Clontech) as described previously (10). Mouse full-length TEX14 and MLKP1 were previously subcloned into the Matchmaker GAL4 two-hybrid pGBKT7 and pGADT7 vectors (10). The constructs of full-length mouse and human CEP55, human TEX14, truncated mouse CEP55-C1, and truncated mouse TEX14-T1, T2, T1[…]T2, T3, T4, and T4-C were made by using the Matchmaker GAL4 two-hybrid pGBKT7 bait vector and pGADT7 prey vectors. Some Y2H interactions were examined with an oxygen biosensor assay (Clontech PT3584-1) that measured the fluorescence emitted by an oxygen-sensing platform that detects GAL4.
Since both CEP55 and TEX14 interact with MKLP1 (10, 22), it was determined whether CEP55 and TEX14 are components of the intercellular bridge as direct or indirect interactors. The inventors first overexpressed full-length FLAG-TEX14 and MYC-CEP55 constructs in HEK293T cells (FIG. 2A). […] Likewise, when the inventors immunoprecipitate with anti-MYC antibody, they immunoprecipitate both MYC-CEP55 and FLAG-TEX14.

full-length mouse CEP55 = target: B3; assay: yeast two-hybrid
Experimental: as §1
To determine the relevance of this GPPX3Y motif as it relates to the interaction of TEX14 with CEP55, we performed yeast two-hybrid assays with mouse TEX14 amino acids 756 to 815 that contain the GPPX3Y motif (FIG. 3A). These 60 amino acids interacted with full-length CEP55 (FIGS. 3B and C). Conversely, an 80-amino-acid fragment of CEP55 (C1) that contains the hinge region interacted with full-length TEX14, the C terminus (T3), and GPPX3Y-containing fragment (T4) but not a shorter sequence that lacked the GPPX3Y motif (T4-C) (FIG. 3A to C). Thus, similar GPPX3Y-containing regions of TEX14, ALIX, and TSG101 interact with the hinge region of CEP55.

For “TSG: truncated TSG101 region including the GPPX3Y motif, pcDNA3 overexpression vector (MIVVFGDEPPVFSRPISASYPPYQATGPPNTSYMPGMPGGISPYPSGYPPNPSGYPGCPY)”, the “effect of overexpression on TX-CEP interaction” value (TX-CEP interaction) was “fails to disrupt”.

“ALIX: truncated ALIX region including the GPPX3Y motif, pcDNA3 overexpression vector (ATAPSPVGAGTAAPAPSQTPGSAPPPQAQGPPYPTYPGYPGYCQMPMPMGYNPYAYGQYN)” was tested, and the “effect of overexpression on TX-CEP interaction” value (TX-CEP interaction) was “fails to disrupt”.

B1: full-length mouse MKLP1 (other, UniProt E9Q5G3 1-953, looked up)
chain: MKSAKAKTVRKPVIKKGSQTNLKDPVGVYCRVRPLSFPDQECCVEVINSTTLQLHTPEGYRLNRNGDYKETQYSFKRVFGTHTTQKELFDVVANPLVDDLIHGKNGLLFTYGVTGSGKTYTMTGSPGSGGLLPRCLNMIFNSIGSFQAKRYVFKSNDRNSMEIQCEVDALLERQKREALPIPKTPSSKRQADPEFADMINVQEFCKAEEVDEDSVYGVFVSYIEIYNNYIYDLLEEVQFDPIKPKLPQSKTLREDKNHNMYVAGCTEVEVKSTEEAFEVFWRGQKKRRIANTHLNRESSRSHSVFSIKLVQAPLDADGDNVLQEKEQITISQLSLVDLAGSERTNRTKAEGNRLREAGNINQSLMTLRTCMEVLRENQTYGTNKMVPYRDSKLTHLFKNYFDGEGKVRMIVCVNPKAEDYEESLQVMRFAEVTQEVEVARPVDKVICGLTPGRRYRNLPRGGPVGDEPLVPEVILQSFPPLPPCKLLDINDEETLPKLADTLEKRHHLRQLMTEDLNKKCLAFKALLKEFDNSLSNKENYVQEKLNEREKVISGQKLEIERLEKKNKTLEYKIEILEKTTTIYEEDKRNLQQELESQNQKLQRQFSDKRRLEARLQGMVTETSMKWQKECERRVAATQLEMQNKLWVKDEKLKQLKAIVTEPKPEKPERPSRERDREKIIPRSVSPSPLPLSSNNIAQISNGQQLMSQPQLHRRSNSCSSISVASCISEWEQKLSPFSTPVNVTSLARHRQQEPGQSKTCIVSDRRRGMCWTEGREMVPTFSSEIGVEEDHCRRNTPIPVRHRRSRSAGSRWVDHKPASNVQTETVMQPHVPHAITVSVANEKALAKCEKYMLTHQELASDGEIQTKVIKGDVYKTRGGGQSVQFTDIETLKQELPTGSRKRRSSTLAPAQPDGTESEWTDVETRCSVAVEMRAGSQLGPGYQHHAQPKRKKP
notes: whole, on cells; Yeast two-hybrid fusion with a GAL4 domain; also called MLKP1
B1: binds (full-length mouse TEX14).

B2: mouse TEX14 amino acids 756 to 815, GPPX3Y-containing fragment (T4) (peptide, UniProt Q7M6U3 756-815, looked up)
chain: EVEELEWAQKELDSQCSSLRDASLKFANAKFQPAVGPPSLAYLPPVMQLPGLKQPENGGT
notes: range 756-815; Yeast two-hybrid GAL4 fusion; also called TEX14-T4
B2: binds (full-length mouse CEP55).

B3: binds (full-length mouse TEX14).
